The RNAGym collection of RNA variant scans (doi:10.7554/elife.80360)

B1: CPEB3 Ribozyme (parent)
chain: GGGGGCCACAGCAGAAGCGUUCACGUCGCGGCCCCUGUCAGAUUCUGGUGAAUCUGCGAAUUCUGCUGU

Variants of: B1
Experiment: self-cleavage, relative activity (ratio to wild type); higher = more cleavage; co-transcriptional

| Variant | self-cleavage |
| --- | --- |
| G14C U49A | 0.712 |
| G14C U49G | 0.689 |
| G14U U46A | 0.862 |
| G14U U46C | 0.758 |
| G14U C33A | 0.522 |
| G14U C33U | 0.79 |
| G14U U61C | 0.367 |
| G14U U61G | 0.432 |
| G14C U61A | 0.346 |
| G14C U61G | 0.266 |
| A15C A59C | 0.288 |
| G14U A52C | 0.715 |
| G14U A52U | 0.767 |
| A15C C27G | 0.123 |
| A15C C27U | 0.119 |
| G14C U46A | 0.651 |
| G14C U46C | 0.48 |
| G14C U46G | 0.599 |
| G14U U36A | 0.18 |
| G14U C54U | 0.734 |
| G14U C54G | 0.363 |
| G14U C54A | 0.266 |
| G14U G65U | 0.334 |
| G14U G65A | 0.32 |

| Variant | self-cleavage |
| --- | --- |
| G14U G65C | 0.384 |
| G14U C66G | 0.325 |
| G14U C66A | 0.374 |
| A15C C32A | 0.302 |
| A15C C32G | 0.153 |
| A15C C35A | 0.229 |
| A15C C35G | 0.285 |
| G14U C35U | 0.601 |
| G14U C35G | 0.309 |
| G14U G50A | 0.812 |
| G14U G50U | 0.815 |
| G14U G50C | 0.616 |
| G14U G17U | 0.161 |
| G14U G17A | 0.145 |
| G14U C18U | 0.225 |
| G14U C18G | 0.0825 |
| G14U C18A | 0.142 |
| A15C A16U | 0.49 |
| A15C A16C | 0.111 |
| A15C A16G | 0.142 |
| G14U A59U | 0.365 |
| G14U A51G | 0.842 |
| G14U A51C | 0.61 |
| G14U C29A | 0.19 |

| Variant | self-cleavage |
| --- | --- |
| G14U C29G | 0.167 |
| G14U C29U | 0.111 |
| G14C U55C | 0.271 |
| G14C U55A | 0.22 |
| G14U C57U | 0.351 |
| G14U C57A | 0.216 |
| G14U C57G | 0.246 |
| G14U G31A | 0.305 |
| G14U G31C | 0.163 |
| G14U G31U | 0.164 |
| G14U G47U | 0.857 |
| G14U G47A | 0.836 |
| G14U G47C | 0.877 |
| G14U U49G | 0.867 |
| G14U U49C | 0.678 |
| A15C A51C | 0.752 |
| G14U U64G | 0.481 |
| G14U U64C | 0.401 |
| G14U U64A | 0.458 |
| G14U C45G | 0.62 |
| G14U C45A | 0.665 |
| G14U C45U | 0.721 |
| G14U U67G | 0.77 |
| G14U U67C | 0.55 |

| Variant | self-cleavage |
| --- | --- |
| G14U G37C | 0.129 |
| G14U G37U | 0.129 |
| A15C C34A | 0.394 |
| G14U G58A | 0.679 |
| G14U G58C | 0.72 |
| G14C U53G | 0.397 |
| G14U C34A | 0.526 |
| G14U C34U | 0.833 |
| G14U C34G | 0.347 |
| G14U U20G | 0.137 |
| G14U U20A | 0.121 |
| G14U U55G | 0.268 |
| G14U U55C | 0.345 |
| G14U A42C | 0.523 |
| G14U A42U | 0.425 |
| A15C A52G | 0.98 |
| G14U C27U | 0.15 |
| G14U G19A | 0.148 |
| G14U A15G | 0.843 |
| G14U A23U | 0.986 |
| G14U A23C | 0.7 |
| G14U A23G | 0.452 |
| A15C C22U | 0.2 |
| A15C C29G | 0.163 |

| Variant | self-cleavage |
| --- | --- |
| A15C C29U | 0.122 |
| A15C C33A | 0.32 |
| A15C C33G | 0.259 |
| G14C U67A | 0.468 |
| G14C U67G | 0.549 |
| G14C U67C | 0.443 |
| G14U U43G | 0.278 |
| G14U U43C | 0.472 |
| A15C | 0.923 |
| G14U G41C | 0.245 |
| G14U G56U | 0.309 |
| G14U G56C | 0.292 |
| G14U U53A | 0.356 |
| G14U U53G | 0.439 |
| G14U U53C | 0.33 |
| A15C A60G | 0.292 |
| A15C A60C | 0.308 |
| A15C A60U | 0.377 |
| G14U C24G | 0.109 |
| G14U C24U | 0.137 |
| G14C U64G | 0.546 |
| G14C U64C | 0.283 |
| G14C U64A | 0.432 |
| G14U U26A | 0.555 |

| Variant | self-cleavage |
| --- | --- |
| G14U U26G | 0.559 |
| A15C A40G | 0.626 |
| A15C A40C | 0.137 |
| A15C A42C | 0.602 |
| A15C A42U | 0.618 |
| A15C A42G | 0.678 |
| G14U U44C | 0.325 |
| A15C C18U | 0.296 |
| A15C C18A | 0.174 |
| A15C C18G | 0.0508 |
| G14U A16C | 0.123 |
| G14U A16U | 0.363 |
| G14C U69G | 0.726 |
| G14C U69C | 0.968 |
| G14C U62G | 0.368 |
| G14C U62A | 0.394 |
| G14C U62C | 0.352 |
| G14U C32U | 0.816 |
| G14U C32A | 0.333 |
| G14U G25A | 0.141 |
| G14U G25U | 0.124 |
| G14U G25C | 0.204 |
| G14U U21A | 0.733 |
| G14U U21C | 0.379 |

| Variant | self-cleavage |
| --- | --- |
| G14U G68U | 0.816 |
| G14U C22A | 0.15 |
| G14U C22U | 0.15 |
| G14U U38G | 0.111 |
| G14U U38C | 0.573 |
| G14U U38A | 0.566 |
| G14U A60G | 0.4 |
| G14U U62G | 0.513 |
| G14U U62C | 0.364 |
| A15C C24A | 0.273 |
| A15C C24U | 0.27 |
| G14U C63G | 0.994 |
| G14U C63A | 0.994 |
| G14U C63U | 0.893 |
| G14U G30A | 0.288 |
| G14U G30U | 0.155 |
| G14U G30C | 0.187 |
| G14U C39U | 0.394 |
| G14U C39G | 0.373 |
| G14U A40G | 0.425 |
| G14U A40U | 0.179 |
| G14U G28U | 0.164 |
| G14U G48A | 0.893 |
